This note sets out measurements from the DeepSol protein solubility set.

A short description of this data set: soluble on expression in E. coli; label from the status in PepcDB or PDB records.
For “GPSPVGQQYHVEKFSGLRIRKPRVSSSEMERKMNGRKLIRLAQLQNKIATEKLEEEDWVTFGVIVKKITPQSSNNGKTFSIWRLNDLKDLDKYISLFLFGDVHKEHWKTDQGTVIGLLNANPMKPKEGTDEVCLSVDNPQKVLLMGDAVDLGTCKARKKNGDPCTQMVNLNDCEYCQYHVQAQYKKVSSKRADLQSSYSG”, the “soluble on expression in E. coli” value is “soluble”.
In the case of “GQHTLKQFAADSALTTTTPLCSEVPLFDINALGDWTYLGTSLPAKFAKLFASILHCIDDEYFLITPVEKVRVQVEDAPLLIVDFERAQPHSLLNVSTSIGTLHHNVDIKQMKLTDDSVYLPLERGLWGKLGRACYYNFVNEFNLSDLNEQ”, the “soluble on expression in E. coli” value is given as “soluble”.
To “GRDFRFSISPNFTWVKNAVEKLANGATEEINNNRIVGQPIGIIYGYETDGLFVDQAEIDAAPEQLVSKSGLKPGYVKYKDISGPDGVPDGKVDAQYDRTVLGSTTPKFYYGLNLSASYKGFDFSALLQGLGGHKRLIGSYMAYAFYNGGQIQRWQAESCWKEENPDKWAEYPRLETLNMNDTNLQTSDYWVRNASFLRVKNIQIGYTFPKAWTKKIGLENVRVYVSGQNLFSFNSFYKGWDPENEIGTGDSPSYYPVNSIYSFGFNFKF” belongs “not soluble”; to “GSASPTPPYLKWAESLHSLLDDQDGISLFRTFLKQEGCADLLDFWFACTGFRKLEPCDSNEEKRLKLARAIYRKYILDNNGIVSRQTKPATKSFIKGCIMKQLIDPAMFDQAQTEIQATMEENTYPSFLKSDIYLEYTRTGSESPKV”, “soluble”.
Regarding “GSCASCPNNCENGLCTNSCDFEDLLSNCESLKTSAGCKHELLKTKCQATCLCEDKIH”, the “soluble on expression in E. coli” value was “soluble”.
Turning to “GSDEKRLHFGNGHLKLPGLRTYVDPHTYEDPTQTVHEFAKELDATNISIDKVVGAGEFGEVCSGRLKLPSKKEISVAIKTLKVGYTEKQRRDFLGEASIMGQFDHPNIIRLEGVVTKSKPVMIVTEYMENGSLDSFLRKHDAQFTVIQLVGMLRGIASGMKYLSDMGYVHRDLAARNILINSNLVCKVSDFGLSRVLEDDPEAAYTTRGGKIPIRWTSPEAIAYRKFTSASDVWSYGIVLWEVMSYGERPYWEMSNQDVIKAVDEGYRLPPPMDCPAALYQLMLDCWQKDRNNRPKFEQIVSILDKLIRNPGSLKIITSAAARPSNLLLDQSNVDITTFRTTGDWLNGVWTAHCKEIFTGVEYSSCDTIAKIS”, the “soluble on expression in E. coli” value was “soluble”.
To “GSEAWMNFYLEEFNLSIPDSGPYGITSSEDGKVWFTQHKANKISSLDQSGRIKEFEVPTPDAKVMCLIVSSLGDIWFTENGANKIGKLSKKGGFTEYPLPQPDSGPYGITEGLNGDIWFTQLNGDRIGKLTADGTIYEYDLPNKGSYPAFITLGSDNALWFTENQNNSIGRITNTGKLEEYPLPTNAAAPVGITSGNDGALWFVEIMGNKIGRITTTGEISEYDIPTPNARPHAITAGKNSEIWFTEWGANQIGRITNDNTIQEYQLQTENAEPHGITFGKDGSVWFALKCKIGKLNLNE” belongs “soluble”; to “GSEVYKKAPPYPEQVVSASGKVLMTKDDILAGQSAWQTTGGMEVGSILGHGAYQAPDWTADWLHRELVAWLDLTAQQTYGKKFDEVSPEEQAVLKTRLADEYRNQSRVKEDGSVVISDTRVKAIESILPYYHGVYSDDPKFQTTREHFAMKNNTLPSQEAREKLFNFFFWTSWSASTNRPDENFTYTNNWPHEPLINNVPTTEN”, “not soluble”; to “GSGAVTAGAAPRILKHQVVRAELDRMLDGMRIGDPFPAEREIAEQFEVARETVRQALRELLIDGRVERRGRTTVVARPKIRQPLGMGSYTEAAKAQGLSAGRILVAWSDLTADEVLAGVLGVDVGAPVLQLERVLTTDGVRVGLETTKLPAQRYPGLRETFDHEASLYAEIRSRGIAFTRTVDTIDTALPDAREAALLGADARTPMFLLNRVSYDQDDVAIEQRRSLYRGDRMTFTAVMHAKNSAIVS”, “soluble”.
Turning to “GSGMKETAAAKFGERQHMDSPDLGTDDDDKAMACSAGPSGFFTRLGRLIKEKAKSDVEKVFSGFSKTRENLAVIDELLLFWNLAETDRVLDELEEALLVSDFGPKITVRIVERLREDIMSGKLKSGSEIKDALKESVLEMLAKKNSKTELQLGFRKPAVIMIVGVNGGGKTTSLGKLAHRLKNEGTKVLMAAGDTFRAAASDQLEIWAERTGCEIVVAEGDKAKAATVLSKAVKRGKEEGYDVVLCDTSGRLHTNYSLMEELIACKKAVGKIVSGAPNEILLVLDGNTGLNMLPQAREFNEVVGITGLILTKLDGSARGGCVVSVVEELGIPVKFIGVGEAVEDLQPFDPEAFVNAIFS”, the “soluble on expression in E. coli” value is “soluble”.
For the sequence “GSHEHPEFLKAGKEPGLQIWRVEKFDLVPVPTNLYGDFFTGDAYVILKTVQLRNGNLQYDLHYWLGNECSQDESGAAAIFTVQLDDYLNGRAVQHREVQGFESATFLGYFKSGLKYKKGGVASGFKHVETQEKNPLPSKETIEQEKQ”, the “soluble on expression in E. coli” value is “soluble”.
As to “GSHMDKIKLLKAAFLQYCRKDLGHAQMVVDELFSSHSDLDSDSELDRAVTQISVDLMDDYPASDPRWAESVPEEAPGFSNTSLIILHQLEDKMKAHSFLMDFIHQVGLFGRLGSFPVRGTPMATRLLLCEHAEKLSAAIVLKNHHSRLSDLVNTAILIALNKREYEIPSNLTPADVFFREVSQVDTICECLLEHEEQVLRDAPMDSIEWAEVVINVNNILKDMLQAASHYRQNRNSLYRREESLEKEPEYVPWTATSGPGGIRTVIIRQHEIVLKVAYPQADSNLRNIVTEQLVALIDCFLDGYVSQLKSVDKSSNRERYDNLEMEYLQKRSDLLSPLLSLGQYLWAASLAEKYCDFDILVQMCEQTDNQSRLQRYMTQFADQNFSDFLFRWYLEKGKRGKLLSQPISQHGQLANFLQAHEHLSWLHEINSQELEKAHATLLGLANMETRYFAKKKTLLGLSKLAALASDFSEDMLQEKIEEMAEQERFLLHQETLPEQLLAEKQLNLSAMPVLTAPQLIGLYICEENRRANEYDFKKALDLLEYIDEEEDININDLKLEILCKALQRDNWSSSDGKDDPIEVSKDSIFVKILQKLLKDGIQLSEYLPEVKDLLQADQLGSLKSNPYFEFVLKANYEYYVQGQI”, the “soluble on expression in E. coli” value is on record as “soluble”.
With “GSHMEDSTTNITKKQKWTVEESEWVKAGVQKYGEGNWAAISKNYPFVNRTAVMIKDRWRTMKRLGMN”, the “soluble on expression in E. coli” value is reported as “soluble”.
With “GSHMKETKKAGPIELPEELEAQRQRHNDPRRPPWPLLHQRVVLLREGKGAPEDIALMWEQTKHYYPADWLIPLELTQVLKYSSGKYLQTYVADPDEMRKEVLMQLLNVKYGRVSDPNGGRVNKDVEEIISMAVDDLENMDLNPAADAVLIPTHT”, the “soluble on expression in E. coli” value is reported as “soluble”.
“GSHMLHWGPKYWRSLHLYAIFFSDAPSWKEKYEAIQWILNFIESLPCTRCQHHAFSYLTKNPLTLNNSEDFQYWTFAFHNNVNNRLNKKIISWSEYKNIYEQSILK”: the “soluble on expression in E. coli” value is “soluble”.
For “GSHMQQWVDCEFTGRDFRDEDLSRLHTERAMFSECDFSGVNLAESQHRGSAFRNCTFERTTLWHSTFAQCSMLGSVFVACRLRPLTLDDVDFTLAVLGGNDLRGLNLTGCRLRETSLVDTDLRKCVLRGADLSGARTTGARLDDADLRGATVDPVLWRTASLVGARVDVDQAVAFAAAHGLCLAGG”, the “soluble on expression in E. coli” value was “soluble”.
Take “GSHMSGEDAEVRAVSEDVSNGSSGSPSPGDTLPWNLGKTQRSRRSGGGAGSNGSVLDPAERAVIRIADERDRVQKKTFTKWVNKHLIKAQRHISDLYEDLRDGHNLISLLEVLSGDSLPREKGRMRFHKLQNVQIALDYLRHRQVKLVNIRNDDIADGNPKLTLGLIWTIILHFQISDIQVSGQSEDMTAKEKLLLWSQRMVEGYQGLRCDNFTSSWRDGRLFNAIIHRHKPLLIDMNKVYRQTNLENLDQAFSVAERDLGVTRLLDPEDVDVPQPDEKSIITYVSSLYDAMPRVP”: the “soluble on expression in E. coli” value was “soluble”.
Turning to “GSHMSYADSSRNAVLTNGGRTLRAECRNADGNWVTSELDLDTIIGNNDGHFQWGGQNFTETAEDIRFHPKEGAAEQPILRARLRDCNGEFHDRDVNLNRIQNVNGRLVFQ”, the “soluble on expression in E. coli” value is “soluble”.
As for “GSHMTEAEYLANYDPKAFKAQLLTVDAVLFTYHDQQLKVLLVQRSNHPFLGLWGLPGGFIDETCDESLEQTVLRKLAEKTAVVPPYIEQLCTVGNNSRDARGWSVTVCYTALMSYQACQIQIASVSDVKWWPLADVLQMPLAFDHLQLIEQARERLTQKALYSLVPGFALSEPFTLPELQHVHEVLLGKPIQGKSFRRRVEQADLLIDTGLKRTERGRPANLYCLKPDTASYRFLRNLEC”, the “soluble on expression in E. coli” value is “soluble”.
On to “GSHMTNVTGDYTDCTPLLGDRAALDSFYEEHGYLFLRNVLDRDLVKTVAEQMREGLVALGAADPHATLEELTIDSFESVDEVAMHDYVKYDAFWNNPSTIKVFEQVFGEPVFVFLSTTIRYYPSQAGSEEPSFHYLTPFHQDGFYIGPNQDFRTFWIPLIRTTRESGGVALADGSHRRGKRDHVLNESFRRFGHPVRGIPPTEVSEDEHLLHSPMEPGDILLFHAHMCHKSIPNLSKDPRLMRMSMDTRVQPAKSHRGFNAMTPWTESAKDASKGIMAKITGTPTDVE”, for which the “soluble on expression in E. coli” value is reported as “soluble”.
Turning to “GSIPGLERALQQYTLEPSEKPFDLKSVPLATAPLAEQRTESTPVTAAKQPEKVAATRQEIFQEQLAAVPEFQGLGPLFKSSPEPVALTESETEYVIRCTKHTFTDHMVFQFDCTNTLNDQTLENVTVQMEPSEAYEVLCYVPARSLPYNQPGTCYTLVALPKEDPTAVACTFSCVMKFTVKDCDPTTGEADDEGYEDEYVLEDLEVTIADHIQKVMKLNFEAAWDEVGDEFQKEETFTLSTIKTLEEAVGNIVKFLGMHPCERSDKVPDNKNTHTLLLAGVFRGGHDILVRSRLLLLDTVTMQVTARSSEELPVDIVLASVG”, the “soluble on expression in E. coli” value was “soluble”.
“GSMADEALFLLLHNEMVSGVYKSAEQGEVENGRCITKLENMGFRVGQGLIERFTKDTARFKDELDIMKFICKDFWTTVFKKQIDNLRTNHQGIYVLQDNKFRLLTQMSAGKQYLEHASKYLAFTCGLIRGGLSNLGIKSIVTAEVSSMPACKFQVMIQKL”: the “soluble on expression in E. coli” value was “soluble”.
“GSMDALNSKEQQEFQKVVEQKQMKDFMRLYSNLVERCFTDCVNDFTTSKLTNKEQTCIMKCSEKFLKHSERVGQRFQEQNAALGQGLGR”: the “soluble on expression in E. coli” value was “soluble”.
Turning to “GSMDYKDDDDKKTNWLKRIYRVRPCVKCKVAPRDWKVKNKHLRIFNMCKTCFNNSIDIGDDTYHGHVDWLMYADSKEISNT”, the “soluble on expression in E. coli” value is recorded as “soluble”.
As for “GSMSFLGFGGGQPQLSSQQKIQAAEAELDLVTDMFNKLVNNCYKKCINTSYSEGELNKNESSCLDRCVAKYFETNVQVGENMQKMGQSFNAAGKF”, the “soluble on expression in E. coli” value is “soluble”.
“GSMVENSELRKAGLKVTLPRVKILQMLDSAEQRHMSAEDVYKALMEAGEDVGLATVYRVLTQFEAAGLVVRHNFDGGHAVFELADSGHHDHMVCVDTGEVIEFMDAEIEKRQKEIVRERGFELVDHNLVLYVRKKK”: the “soluble on expression in E. coli” value is on record as “soluble”.
With “GSPGISGGGGGILDSMVEKEEPKEEEKLGKLQYSLDYDFQNNQLLVGIIQAAELPALDMGGTSDPYVKVFLLPDKKKKFETKVHRKTLNPVFNEQFTFKVPYSELGGKTLVMAVYDFDRFSKHDIIGEFKVPMNTVDFGHVTEEWRDLQSAE”, the “soluble on expression in E. coli” value is given as “soluble”.
For “GSSEDKITVHFINRDGETLTTKGKIGDSLLDVVVQNNLDIDGFGACEGTLACSTCHLIFEQHIFEKLEAITDEENDMLDLAYGLTDRSRLGCQICLTKAMDNMTVRVPDAVSDARESIDMGMNSSKIE”, the “soluble on expression in E. coli” value is “soluble”.
